# Data taken from patent publication US20210079070A1.
# Assays:
# [1] = biological target: BG505 SOSIP.664 Env ectodomain trimer (HIV-1); assay: SPR, BG505 SOSIP.664 captured by mAb 2G12, Fab in the flow phase
# JRFL SOSIP.664 (HIV-1) = assay: ELISA on soluble trimer, panel JRFL SOSIP.664, OD 450
# [2] = biological target: BG505 SOSIP.664 Env ectodomain trimer (HIV-1); assay: ELISA on soluble trimer, panel BG505 SOSIP.664, OD 450
# BG505 DS-SOSIP = assay: ELISA, panels headed BG505 DS-SOSIP, OD 450
# [3] = biological target: HIV-1 Env (wild type, as used in the mutagenesis mapping of FIG. 6) (HIV-1); assay: cell-based or functional assay
# [4] = biological target: HIV-1 Env R304E mutant (HIV-1); assay: cell-based or functional assay
# [5] = biological target: BG505 SOSIP.664 Env ectodomain trimer (HIV-1); assay: ELISA, panel 'N6 70-03 Binding to BG505 SOSIP.664', HIV-1 Env mutation: WT
# [6] = biological target: BG505 SOSIP.664 Env ectodomain trimer (HIV-1); assay: ELISA, BG505 SOSIP.664 coated on the plate, HRP anti-human IgG, OD 450
molecule,measurement,setting,value
N6 Fab,Kd,[1],0.36 nM
N6 (antibody),EC50 (read off the curve),JRFL SOSIP.664 (HIV-1),0.2 µg/mL
VRC01 Fab,Kd,[1],22.1 nM
VRC01 (antibody),EC50 (read off the curve),JRFL SOSIP.664 (HIV-1),0.2 µg/mL
same,EC50 (read off the curve),[2],0.4 µg/mL
"VRC06 (antibody, V domains shown) VH: EVQLVESGPVMRKPGSSMKISCATSGYNFRDFSIHWVRFNRRYGFEWIGWIKPMWGAVNYARQLQGRVSMSRLFSQDLYYPDRGTAYLEFSGLTSADTADYFCVRRGSSCPHCGDFHFEHWGQGTAVVVSA VL: EIVLTQSPATLSLSPGERATLSCRASQGGNSLNWYQKRRGQTPRLLIYDTSRRASDIPEKFVGSGSGTDFSLTITKVGPEDFAVYYCQQFEFFGLGTTLEIN",EC50 (read off the curve),BG505 DS-SOSIP,0.5 µg/mL
"N6 70-03 (antibody, V domains shown) VH: RAHLVQSGTAMKKPGASVRVSCQTSGYTFTAHILFWFRQAPGRGLEWVGWIKPQYGAVNFGGGFRDRVTLTRQLSQDPDDPDWGIAYMDIRGLKPDDTAVYYCARDRSYGDSSWALDAWGQGTTVVVSA VL: YIHVTQSPSSLSVSIGDRVTINCQTSQGVGSDLHWYQHKPGRAPKLLIHHTSSVEDGVPSRFSGSGFHTSFNLTISDLQADDIATYYCQVLQFFGRGSRLHIK",EC50 (read off the curve),E62K/E64K,0.1 µg/mL
same,"neutralization sensitivity (IC50), Env-pseudovirus infection of TZM-bl cells",[3],0.007 µg/mL
same,"neutralization sensitivity (IC50), Env-pseudovirus infection of TZM-bl cells",[4],0.053 µg/mL
same,reduction in neutralization sensitivity compared to the WT virus,[4],8 fold
same,EC50 (read off the curve),JRFL SOSIP.664 (HIV-1),0.2 µg/mL
same,EC50 (read off the curve),[2],0.2 µg/mL
same,EC50 (read off the curve),[5],0.2 µg/mL
"N6 70-03 Fab (Fab, V domains shown) VH: RAHLVQSGTAMKKPGASVRVSCQTSGYTFTAHILFWFRQAPGRGLEWVGWIKPQYGAVNFGGGFRDRVTLTRQLSQDPDDPDWGIAYMDIRGLKPDDTAVYYCARDRSYGDSSWALDAWGQGTTVVVSA VL: YIHVTQSPSSLSVSIGDRVTINCQTSQGVGSDLHWYQHKPGRAPKLLIHHTSSVEDGVPSRFSGSGFHTSFNLTISDLQADDIATYYCQVLQFFGRGSRLHIK",Kd,[1],0.016 nM
"VRC03 (antibody, V domains shown) VH: QVQLVQSGAVIKTPGSSVKISCRASGYNFRDYSIHWVRLIPDKGFEWIGWIKPLWGAVSYARQLQGRVSMTRQLSQDPDDPDWGVAYMEFSGLTSADTAEYFCVRRGSCDYCGDFPWQYWGQGTWVVSSA VL: EIVLTQSPGILSLSPGETATLFCKASQGGNAMTWYQKRRGQVPRLLIYDTSRRASGVPDRFVGSGSGTDFFLTINKLDREDFAVYYCQQFEFFGLGSELEVH",EC50 (read off the curve),BG505 DS-SOSIP,0.3 µg/mL
same,EC50 (read off the curve),[6],0.8 µg/mL
